Measured values published in publication PMC6321344, “Evaluation of [^68Ga]Ga-DOTA-TCTP-1 for the Detection of Metalloproteinase 2/9 Expression in Mouse Atherosclerotic Plaques” (Molecules, 2018).
Positions of bridges follow the written chain, without caps; N, C: chain ends. Residues, ends and D or L forms follow the SMILES beside them. *: point of attachment. X1 = O=C(O)CN1CCN(CC(=O)O)CCN(CC(=O)NCCOCCOCCN*)CCN(CC(=O)O)CC1

Columns and labels:
[1] = in vivo; conditions: LDLR^-/-ApoB^100/100, mouse, iv, 11 MBq, total radioactivity
Description: A subset of mice (three atherosclerotic and three healthy controls) were imaged using a small-animal PET/computed tomography (CT) scanner (Inveon Multimodality; Siemens Medical Solutions, Knoxville, TN, USA). The mice were anesthetized using 1.5% isoflurane, and their temperature was maintained using a heating pad throughout the imaging. Mice were i.v. injected with 11 ± 0.86 MBq (in 50–100 µL) of [^68Ga]Ga-DOTA-TCTP-1 via the tail vein. PET data were acquired in a list-mode for 60 min, starting from the time of injection of [^68Ga]Ga-DOTA-TCTP-1. The images were reconstructed using an ordered-subset expectation maximization 2D algorithm with four iterations into 30 × 3 s, 9 × 10 s, 4 × 30 s, 5 × 60 s, and […] time frames. Immediately after the PET scan, 100 µL of intravascular iodinated contrast agent eXIATM160XL (Binitio Biomedical Inc., Ottawa, ON, Canada) was injected and high-resolution CT was acquired (80 kV, 500 μA). CT images were reconstructed using a Feldkamp-based algorithm, and images were analyzed using Carimas v.2.6 software (Turku PET Centre, Turku, Finland). ROIs were drawn in the aortic arch, blood pool (inside the LV cavity), and several relevant organs, according to the high-resolution CT image. Results are reported as the percentage of injected dose per gram (%ID/g) as a function of the time after injection, i.e., as time-activity curves.

[2] = in vivo; conditions: both sexes, C57BL/6N, mouse, iv, 18 MBq, total radioactivity, Tracer uptake
Description: (§1) Sixteen (eleven males, five females) low-density lipoprotein receptor deficient mice expressing only apolipoprotein B100 (LDLR^-/-ApoB^100/100, Jackson Laboratory, Bar Harbor, ME, USA, strain #003000) were used. Mice were kept on a Western-type diet for 4.4 months starting at the age of 3.5 months. Forty-two percent of their calorific intake consisted of fat and 0.2% cholesterol (TD 88137, Harlan Teklad, Harlan Laboratories, Madison, WI, USA). Nine C57BL/6N mice on a regular chow diet (five males, four females) were used as controls. The mean age and weight of the studied mice at the time of tracer injection were 8.2 ± 0.70 months and 38 ± 8.0 g for the LDLR^-/-ApoB^100/100 mice, and 3.9 ± 0.86 months and 31 ± 5.8 g for the controls. During the studies, mice were housed under standard conditions (light and humidity) with ad libitum access to water and food. The study protocol was approved by the National Animal Experiment Board in Finland and the Regional State Administrative Agency for Southern Finland, and carried out in compliance with the relevant European Union directives. The high-performance liquid chromatography (HPLC) system was a LaChrom instrument (Hitachi; Merck Darmstadt, Germany), including a pump L7100, an ultraviolet (UV) detector L-7400, an interface D-7000 and a computerized data acquisition and processing software. The reversed-phase HPLC column (μBondapak 10 μm C18, 7.8 × 300 mm, pore size 125 Å) was purchased from Waters Corporation, Milford, MA, USA. The online radioisotope detector (Radiomatic 150 TR, Flow Scintillation Analyzer) was from Packard, Meriden, CT, USA. The precursor compound DOTA-TCTP-1 (Figure 1) was obtained as a custom synthesis from Peptide Specialty Laboratories GmbH (Heidelberg, Germany).
(§2) Isoflurane anesthetized mice were intravenously (i.v.) injected with 18 ± 2.7 MBq (in 50–100 µL) of [^68Ga]Ga-DOTA-TCTP-1 via the tail vein. At 60 min after tracer injection, a blood sample was obtained by cardiac puncture and animals were killed by cervical dislocation. Various tissues were excised, weighed, and measured for radioactivity on a gamma counter (Triathler 3”, Hidex, Turku, Finland). Radioactivity values were normalized by the injected radioactivity dose decay with a delta time between injection and measurement, animal weight, and the weight of tissue. Results are expressed as the percentage of injected radioactivity dose per gram of tissue (%ID/g).

[3] = in vivo; design: species or system mouse; conditions: both sexes, iv, 18 MBq, total radioactivity, Tracer uptake
Description: as §1, §2

[4] = tested on: MMP-2/9; conditions: quoted with the dose of the commercial inhibitor; ref product number 444251, Merck KGaA; cited from earlier work

CC(C)C[C@@H]1NC(=O)[C@@H](NC(=O)[C@H](C)NC(=O)CN)CSSC[C@@H](C(=O)NCC(=O)NCCOCCOCCNC(=O)CN2CCN(CC(=O)O)CCN(CC(=O)O)CCN(CC(=O)O)CC2)NC(=O)CNC(=O)[C@H](CCCNC(=N)N)NC(=O)CNC(=O)[C@H](CO)NC(=O)[C@H](CCCNC(=N)N)NC1=O [[^68Ga]Ga-DOTA-TCTP-1, metal not drawn] (H-GACLRSGRGCG-X1; disulfide 3-10)
tissue uptake at 1 h ([1]; Radioactivity in myocardium (PET/CT)): 0.81 ± 0.3 %ID/g
tissue uptake at 1 h ([1]; Uptake in atherosclerotic aorta (PET/CT)): 0.77 ± 0.16 %ID/g
tissue uptake at 1 h ([1]; Uptake in blood pool (PET/CT)): 1.1 ± 0.64 %ID/g
tissue uptake at 1 h ([1]; Uptake in liver (PET/CT)): 4.7 ± 3.8 %ID/g
tissue uptake at 1 h ([2]; Aorta): 0.52 ± 0.25 %ID/g
tissue uptake at 1 h ([2]; Blood): 0.69 ± 0.21 %ID/g
tissue uptake at 1 h ([2]; Bone): 0.63 ± 0.5 %ID/g
tissue uptake at 1 h ([2]; Heart): 0.16 ± 0.066 %ID/g
tissue uptake at 1 h ([2]; Intestine): 0.43 ± 0.18 %ID/g
tissue uptake at 1 h ([2]; Kidneys): 8.9 ± 3.6 %ID/g
tissue uptake at 1 h ([2]; Liver): 3.2 ± 1.6 %ID/g
tissue uptake at 1 h ([2]; Lungs): 1.3 ± 0.74 %ID/g
tissue uptake at 1 h ([2]; Lymph node): 0.48 ± 0.19 %ID/g
tissue uptake at 1 h ([2]; Pancreas): 0.17 ± 0.056 %ID/g
tissue uptake at 1 h ([2]; Plasma): 1.5 ± 1 %ID/g
tissue uptake at 1 h ([2]; Salivary gland): 0.23 ± 0.07 %ID/g
tissue uptake at 1 h ([2]; Skeletal muscle): 0.17 ± 0.13 %ID/g
tissue uptake at 1 h ([2]; Spleen): 1.7 ± 1.3 %ID/g
tissue uptake at 1 h ([2]; Thymus): 0.23 ± 0.07 %ID/g
tissue uptake at 1 h ([2]; WAT (white adipose tissue)): 0.17 ± 0.11 %ID/g
tissue uptake at 1 h ([3]; LDLR-/-ApoB100/100, mouse, Bone): 0.53 ± 0.37 %ID/g
tissue uptake at 1 h ([3]; LDLR-/-ApoB100/100, mouse, Heart): 0.23 ± 0.083 %ID/g
tissue uptake at 1 h ([3]; LDLR-/-ApoB100/100, mouse, Intestine): 0.59 ± 0.22 %ID/g
tissue uptake at 1 h ([3]; LDLR-/-ApoB100/100, mouse, Kidneys): 8 ± 2.9 %ID/g
tissue uptake at 1 h ([3]; LDLR-/-ApoB100/100, mouse, Liver): 1.8 ± 0.48 %ID/g
tissue uptake at 1 h ([3]; LDLR^-/-ApoB^100/100, mouse, Aorta): 0.43 ± 0.19 %ID/g
tissue uptake at 1 h ([3]; LDLR^-/-ApoB^100/100, mouse, Blood): 1.3 ± 0.4 %ID/g
tissue uptake at 1 h ([3]; LDLR^-/-ApoB^100/100, mouse, Lungs): 2.8 ± 1.6 %ID/g
tissue uptake at 1 h ([3]; LDLR^-/-ApoB^100/100, mouse, Lymph node): 0.49 ± 0.15 %ID/g
tissue uptake at 1 h ([3]; LDLR^-/-ApoB^100/100, mouse, Pancreas): 0.35 ± 0.17 %ID/g
tissue uptake at 1 h ([3]; LDLR^-/-ApoB^100/100, mouse, Plasma): 2.6 ± 1.4 %ID/g
tissue uptake at 1 h ([3]; LDLR^-/-ApoB^100/100, mouse, Salivary gland): 0.38 ± 0.15 %ID/g
tissue uptake at 1 h ([3]; LDLR^-/-ApoB^100/100, mouse, Skeletal muscle): 0.19 ± 0.077 %ID/g
tissue uptake at 1 h ([3]; LDLR^-/-ApoB^100/100, mouse, Spleen): 1.9 ± 1.6 %ID/g
tissue uptake at 1 h ([3]; LDLR^-/-ApoB^100/100, mouse, Thymus): 0.35 ± 0.29 %ID/g
tissue uptake at 1 h ([3]; LDLR^-/-ApoB^100/100, mouse, WAT (white adipose tissue)): 0.17 ± 0.21 %ID/g

H-Cys^1-Thr-Thr-His-Trp-Gly-Phe-Thr-Leu-Cys^10-OH (cyclic: 1→10) (disulfide) [MMP-2/9 inhibitor]
IC50 [4]: 10 µM
